Substrate in the series “purified protein”: O=[N+]([O-])c1ccc(O[C@@H]2O[C@H](CO)[C@@H](O)[C@H](O)[C@H]2O)cc1
The series can be described thus: purified protein. Particulars: 50 mM MES pH 5.0, 30°C, 30 min, 0-10 mM substrate.

Series [1] deals with the molecule itself. The experiment in a line: SEC; size-exclusion chromatography of the purified protein; conditions not given. (Size exclusion chromatography separates by hydrodynamic size, large species first.)

B1: CIB12, GH1 β-glucosidase from Cuniculiplasma divulgatum S5 (enzyme)
chain: MFPKNFKFGFSEAGFQFEMGVSDIDTNTDWYKWSHDSENIKNHIVSGDRPEEGVGYWDLYPKDHDLAEYIGMNAARIGIEWSRIFPVSTERVTVEVIEENGDILEIKITEKTIKELDLLSDKNAMQHYTNIFNDIKKRGWFLVINLFHWSLPLWINDPSNRNSEKDNALGNCMNRSSVIEFVKYAAYISYYFGSIADRFATMNEPNEVFKTCSEDKRVESYHIRMKWFVEAHARSYDAMKQFTNRQIGVIYANGDVQSFENKDPKLKEEVEYEQRYSFFDALIHGDVHWYVGACRKTNHVHGKSIRPDLSNRIDWIGVNYYSRNVVKRKEDGYENVRGLGYDTGWVSYEKSLDGRSVSETGWEIYPEGIYNIVMSYHKRYELPMMITENGMADDNDRFRPRYLVSHLKNLERAINDGAKVDGYLHWALTDNFEWGSGFSKKFGLIKVDYKTKKRYLRPSALIMKEITKHNGIPEELEWLGEDKF
notes: CIB12, GH1 β-glucosidase of Cuniculiplasma divulgatum S5 (JCM 30642), GenBank SIM59545.1, locus tag CSP5_0942; predicted monomeric mass 56.8 kDa; Cloned into p15TvL with an N-terminal 6His-tag; also called CSP5_0942; source: E. coli BL21(DE3) Lobstr, purified (Ni-NTA)
By Km is commonly meant the substrate concentration at which the rate is half of its maximum. Broadly, the Vmax is the rate approached at saturating substrate. The term kcat denotes the maximal rate divided by the concentration of active sites. What is called stoichiometry N is a count of units in the complex or per binding partner. B1: in the series “purified protein”, the Km turned out to be 500 ± 100 µM, the Vmax is 0.61 µmol/min/mg and the kcat was 0.57 s⁻¹. In addition, in series [1], the “stoichiometry N” value amounted to 2.

B2: CIB13, GH1 β-glucosidase from Cuniculiplasma divulgatum S5 (enzyme)
chain: MLPKGFRFGFSLAGFQSEMGLSGKDENSDWYQWCHDEYNIKNGVVSGDFPENGAAYWDLFRKDHETAVNIGMNSTRIGIEWSRIFPTSTEGVKVRIDRDGDNITGITIEKSDLESLKKICNMDAVKKYREIFMDLKDRNFYMILNLFHWSMPLWINDPRKREISKGNNLGNFFSEKSVIEFAKFAAFAAYSFDDLVDVYSTMNEPNVVFSGGNNNSEKKYYSKMKFFIEAHARAYDCIRTISRKRIGVIYANEHIESLENSDPELVEEVTWRNRYSFIDSIKSGKTFSTKNMEENSRWPEKNVFRKDLENRLDWIGVNYYSRYVVRRIESGFEAIDGYGFLCSGYEKSKDGRVVSEMGWEIYPQGLYDVLMGYQERYSLPMMVTENGIADDMDRYRPGFLISHMKMIERAIKDGAGVEGYLHWSLTDNFEWSSGFSKKFGLLRVDYRTKKRSIRPSALVFREISKKSGVPEELEWLGERFY
notes: CIB13, GH1 β-glucosidase of Cuniculiplasma divulgatum S5 (JCM 30642), GenBank SIM79973.1, CSP5_1651; predicted monomeric mass 56.1 kDa; Cloned into p15TvL with an N-terminal 6His-tag; also called CSP5_1651; source: E. coli BL21(DE3) Lobstr, purified (Ni-NTA)
Turning to B2, in the series “purified protein”, the Km was found to be 900 ± 100 µM, the Vmax is 0.93 µmol/min/mg and the kcat amounted to 0.87 s⁻¹. In addition, the “stoichiometry N” value in series [1] was 2.

The values are drawn from article PMC11376072, “Moderately thermostable GH1 β-glucosidases from hyperacidophilic archaeon Cuniculiplasma divulgatum S5” (FEMS Microbiology Ecology, 2024).
